Here are results for three molecules from patent publication US20170226215A1 (SORRENTO THERAPEUTICS, published 2017).

First the molecules themselves.
B1: anti-CD137 antibody MB3 (antibody, V domains shown)
VH: QMQLVQSGAEVKKPGASVKVSCKASGYQMRGYYMHWVRQAPGQGLEWMGWINPNSGGTNYAQKFQGRVTITRDTSASTAYMELSSLRSEDTAVYYCAREGEAVGLDLDYWGQGTLVTVSS
VL: SYELTQPPSVSVAPGKTARITCGGNNIGSKSVHWYQQKPGQAPVLVIYYDSDRPSGIPERFSGSNSGNTATLTISRVEAGDEADYYCQVWDSSSVVFGGGTQLTVL
notes: IgG class, variant of D6
B2: anti-CD137 antibody MSC8 (antibody, V domains shown)
VH: QMQLVQSGAEVKKPGASVKVSCKASGYNFGGYYMHWVRQAPGQGLEWMGWVNPKSGGTNYAQKFQGRVTITRDTSASTAYMELSSLRSEDTAVYYCAREGEAVGLDLDYWGQGTLVTVSS
VL: SYELTQPPSVSVAPGKTARITCGGNNIGSKSVHWYQQKPGQAPVLVIYYDSDRPSGIPERFSGSNSGNTATLTISRVEAGDEADYYCQVWDSSSVVFGGGTQLTVL
notes: IgG class, variant of D6
B3: anti-CD137 antibody MB12 (antibody, V domains shown)
VH: QMQLVQSGAEVKKPGASVKVSCKASGYSLEGYYMHWVRQAPGQGLEWMGWINPNSGGTNYAQKFQGRVTITRDTSASTAYMELSSLRSEDTAVYYCAREGEAVGLDLDYWGQGTLVTVSS
VL: SYELTQPPSVSVAPGKTARITCGGNNIGSKSVHWYQQKPGQAPVLVIYYDSDRPSGIPERFSGSNSGNTATLTISRVEAGDEADYYCQVWDSSSVVFGGGTQLTVL
notes: IgG class, variant of D6

The target in this assay is T1, recombinant human CD137/Fc (human, UniProt Q07011 24-186).
T1 construct: Coated on the ELISA plate at 2 µg/mL; not shown: Fc part
Nature of the assay: ELISA, plate coated with recombinant human CD137/Fc at 2 µg/mL, antibody at about 1 µg/mL (single concentration), HRP anti-human lambda, OD 450 nm. The procedure: A Maxisorp plate was coated with recombinant human CD137/Fc or mouse CD137/Fc at 2 μg/mL at 4° C., overnight. The plate was blocked for 1 hour at room temperature, washed 3 times with PBS-Tween (PBST), then anti-CD137 antibodies (˜1 μg/mL) diluted in casein were added and incubated for 30 min with shaking. The plate was washed 3 times with PBST, horseradish peroxidase (HRP)-conjugated mouse anti-human Lambda (1:1000 in casein) was added, then 3,3′,5,5′-Tetramethylbenzidine (TMB) was added as substrate and developed about 5 min. 2M H₂SO₄ was used to stop the reaction and the OD was read at 450 nm.
For the molecule B1, the binding result is listed as “binds”.

For the molecule B2, the binding result is “binds”.

Turning to B3, the binding result is given as “binds”.
